# Experimental data published in the domain aggregation screens of Martell et al. (2025).
# Test: soluble fraction after stress (log2 fold change); higher = more stays soluble; pooled small domains, quantitative proteomics
# Settings: stress: 50 degC
# How it was run: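 Pooled custom libraries of small protein domains were each held under stress at 50°C. The read-out, high-throughput quantitative proteomics, tracked how much of each protein stayed soluble. This is reported as a base-two log fold change used to indicate aggregation propensity. Higher values mean more protein remains in solution.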
row,Sequence,soluble fraction (log2)
1,HMFPDRLRELRKGRNITLETLAEEMNKHLEPGQKPNTAAQIGNWERGDRSPSYIEVRKLADFFNVSMDFL,-0.636
2,HMGDAVSRAYFALADDLLKGELTETVSEVLIRTRYELTSAQLQAVLHRIAQEGWAHKKPGYGWEFSAMLT,-1.83
3,HMGDYERVPEYKGKLTSDLTMEDSQKFAFRFIWQNSDEDEGKIIDQDPPAGKSVAKGSEIVLYVSNG,0.35
4,HMGYQLSLEAQSQLKALGLTSEYITRILDEADNRQPIPGTSRTVYSLNGYQVEFSHSDQQVIRIARG,0.0139
5,HMKSLAQELVDALGDRIRDGRLKVGDKLPSEAAIEAQYGVSRTVVREAISRLQAAGLVVTRHGIGTFIVGI,-0.804
6,HMGDLKSLIQATMDDAGISIKPDAMDYLISHLGSDRLTTRAELDKLILYAGADDKLDLDSVVELVG,-0.0746
7,HMDMNVQNYRGLSLDRAKKLISDLGLKYEVVGTGDSVVKQVPSSGSRMSKENGRIILYTENVEDA,0.00608
8,HMNVDSLVGSEARVTAEIDNRKETGTAMVNGQEWTARAESDEEIYPVGTIVEIRKIQGVKLIVSTH,-0.162
9,HMSEKIDINNSNELELKQLPLTNEQIKSLIEFRRLHGEIQNIYELKNIDFFNIEKVHELKAHIEIKKII,-0.427
10,HMADKSLLELPGLDGDKVSALVTAGVRNVNDLADLATDELVEKTGFDEKTAADLIIAARAVVY,0.331
11,HMPDVAIMNVSVEPEKKVVRLQVKAISLEALLDFSTRLEAIPARVELQNHTPSKELSQKWAVNATLIVIY,0.146
12,HMHPVEPDDPDQHILFQHLRGQDQVHIDALIRLSGWTADKVSSTLLFMELQGLVKQLPGMYYALE,-0.0844
13,HMHDITPAVAETFKQLRAERGLSLSQAAQLTGVSKAMLGQIERGQSSPTVSTLWKIATGFNVAFSVFL,-2.4
14,HMGGLAHPASGEEMEHLFAHLEGELLKSGFLFPPDKAAGMMRNIRAMLTRADFTDQEVRTLRGMIVALSRG,-1.66
15,HMGTELSYSEFLNKVEAGEVTNVTIRGPEITFQTGNSSYTTYAPDDPKLIEHLTAKGVAIKAGP,0.216
16,HMASDLPTVTIMGKTFYTYVAKKGESFFGIANRFGWDPELLVKTNRELETPLDKGALIYYPVPKKPK,-0.199
17,HMSVHSAELKKLKAHLLGIIGRELETQPSTENREEMVRQILHQSYESLRLNLPMQLKEELFNEILAEVL,0.353
18,HMEVADAAQRKILQALQVQPLTVEQLSQELRTDTGDLLVSLSMMEITGLIRREAGNTFLAVFAPK,-0.448
19,HMIITLNIENLKRARENAGLTQTQAAQKIGVSDGTYKNYEQGKREPNGDKIVTIANAFGVTTDYLLGR,-0.334
20,HMGQLVYPAGVYDVNKSYITDSNSAPYVLDKTDNNYYVLNTQMTWKGTEQDNKTPSQSYEESGGSVWLLFD,-0.235
21,HMKEADVRKNEILDAAGILFSEKGYDNTSVTDIMNAVGFAKGTLYHHFKSKEDIMDALIKRQTD,0.219
22,HMTIPRLPFAFAKRFGIVLDNRPSGFVAAHKEGLLPHVLLEVQRFLGDAYTLEVVSDDDFERILGQVYQT,-3.27
23,HMSNEEEIEGLVSKVLDNNPEIVERIRSGEDKLISYLVGEVMKQSSSSLNPGIVKEIIVNKTI,0.161
24,HMAKPAALLFEHRFDGMAEMRFRENIVKNDDGSYTYDEYFLSMLDRAGLEKIVQENMEVWIAYAKQ,-2.17
25,HMLTPSRVLPYLFEDSFFIDTLSLEKDQVVGFLEYIDERLPPQDLMNKSKEFELIDYLINESEAYLSQ,0.0334

row,Sequence,soluble fraction (log2)
1,HMGYDVAEVKFRLIKLLRDSKIGISGVEISERLGINRVTMTKYLNIFSAEGVIGEKNIGNVNLWFVYEGIE,-1.68
2,HMSTRKAFVNGDGVRLRSGPGTNHSIRASLTKGQTVFVTGTKDGWASVSVQGGASGWVSADLLKYE,0.232
3,HMATPRLAIVPQSAAGRRLDAVLAELFPEYSRSRLSAWIKTGDVMVDGAAPRGRDPVRGGEEITLTAVQ,-0.033
4,HMKVVEKHIVPQIQNPIRLQEYASSIFKTITTRSGIKKAIKKQLILLNRKPANTGDWIKEGQLLELLAEE,-0.242
5,HMSRLMIVTPDGRIMDDVPEFGEVRTTTDVNGRVLVLDRNNVVIGFEMTPREYRREFGRNPF,-0.643
6,HMADGEWAEMQRQLTAAGLLVVGRAAQERIQRLSDISPLIEAAQRSNVVMLSERTVDEVLTLVPT,-0.18
7,HMVPPVVRTIYGAGGKMTATFLFPGGYEVDAASGAELPGKYRVESISLDQVVLTDKDGNRVPVGFSSVAPT,0.0614
8,HMATKVSSGATVRDVADLLGLSSAELIKKLMMMGEMATLTQTLTDESIKSIADEYDRKIEIVSAAE,0.0948
9,HMSVAPISYSQFESYLEQGKVASVAVGQDTIAGRFTAPVDGKSQFVTTIVNPQILDRIDKSGVEITGV,0.176
10,HMGLKWVYYTNIEPDGNKINNQKLYDILKQKFVYPVIISRDELDSMELKDLTYDSYIDVEGRYFKPYNLD,-2.23
11,HMDPLASLTPREREVLSLMAQGLSNLAVAERLVVSAGAVEKHISSIFTKLDLAPSEHEHRRVLAVLRYVAG,-3.2
12,HMSYYKEMIRLADSIADKAHEGQTDRNGWPYISHPRRVALGARKLVSEMASSTSPDTSLEELKAEVQIVAL,-0.288
13,HMSDQIQQIAERIAGLRDIAGYSVEELARELGISAEEYKRYESGEVDIPIGFLYKLANKYNVELTAILT,-0.0876
14,HMSEPIYTQLKEILTQKIVNGEFPPGARLPSEYELTELYHISRSTVRLALKELEASGMIVRRRGKGTFVSS,-1.76
15,HMDIDLGAVEEQAVKGSGPGGQKMNKTSSGVLLRYRLGEELVLVKWTRERQHSLNRFLALRELVDEIEAR,≥ 0.62
16,HMVANDQILNQYGISDREAEIIGLLIEGLSNQQIAKQLYISPNTVKTHIKNIYAKVGVNNRLQLFSLLK,-0.173
17,HMRGLVPEIVGTLEGEIRAGTLAVGQKLPTEAEIMARFDVSRTVVREALSRLQASDLVETRHGIGTFVSAR,-0.368
18,HMGYSDEIGEFIKKLRTENHLTQKEFADKYGVTYQAVSKWENGKNLPDMSLIKQMSEDFNIGIDELLDGEK,-0.00754
19,HMGKMTSTLGVHIAAYRKEHGETVAQFASRSGVSVSSIRRIESGISDPSADLVWKISRHMGMTMDDLFKKM,-3.87
20,HMGASGVEVPDVAGMSTAQAVSSLEQKGFVVNRTESYDAGVEKGNVISQSPEGGTKAPNGSAVTIRISQGA,0.428
21,HMTLHDLFPQAVEFVSEKEMISTAELQRKLMISYNSAAKIIDQLLHVDFIQKSESAGKYSVLIK,-2.31
22,HMFIPMTDAQRHLFANKLAKLPELSEYSRGTESYEDFAIRIADMLLEPPKFRMFYPLLEQLGF,-1.88
23,HMGISVEVPDLKNMSVAEAGSLLKNSGLSYAVVDSDYVKTISPGKILDQNPGRGLRVKKGRIVYLTINSL,-1.37
24,HMENLFPDYTMQDYRIVRSELSSKFKVQTVPVTTATATENKIVRQEPEAGSRITEGMTVILYYSIGPE,-0.0582
25,HMRERLPFGFAQSKKVVLLSTESDTPKVLSVNWPSLDLYAELKRVIGRAFLLEIVSEEEFQAQVSDAYQRD,-2.24

row,Sequence,soluble fraction (log2)
1,HMGTPSAEELAFSAQKGNAVMRIMEIREKYIENGGQISDEERNEIERLIAIYYPKASIFDYLPMMG,-0.136
2,HMGKVLIYKPNMSVSDVAIRLGISNAEIIKRLMGLGVMTSINQTIDRDTIELVAMDLGFSIEN,-0.656
3,HMDNIEIGNRIREIRIKKNISVFELAYRTKTSQSHIYQIEGGSQNMSIELLFKIADTLETDPNTILGV,-3.78
4,HMKIEDSNTIKLKANQAYKTHYYSEAIKLYDELLTKYEPNSEAIKLNLAHAHFKAKGFAAASKLYT,0.144
5,HMPDLSAEERNIVEALQKSNDLQVNLIAVKTGMDMGTLSATLFGLEMKGLVKLMAGGTYHLI,-0.141
6,HMDPQDGTVKFFNGARGFGFITPDGGGADVFVHVSAVERAGLTQLVEGQRVNFQTLPDTKGKGPKAVNLKV,0.0729
7,HMSKPVFQTHSVRSADSATVFDVLQTLLAGTPDARIAIDPKTNAIVAWARPETQEVIAKSIMEMEG,0.0132
8,HMAGWIPVEERLPDDLTNPITRDAYVYPVTVDLGDVTDIRYYSFWRGHWYNQGPETMDDLVIAWMLLPEPY,-0.0981
9,HMETVQTGTVKVSNSLNVRSGAGTNYSVLGSLSNGAKVEIVGTSGSWYKIKYGSGYGYVSKDYVTVS,-0.0163
10,HMLKEKETRALANFTNKFFGLDISEDLKPIALSELSKFKKTHKISNLEEFINSFQYDFQNEKILSLLDIFL,-0.994
11,HMTISPYTKDDFLKGTKPFEDVYAHKADPFVHDRALEQMTIWAKSVGVNGFKKLYKAYIDSLRIKNKEI,0.0524
12,HMLLNPFERLTERELEIADLYAKGYGNLEIANFLSIKQNTVSTYKKRIFEKLGIDNLVELIELIKNY,0.148
13,HMRTTYKTRLETLLAGPMSAGDRRFASSLLDFYNRKNRLTPGRARFVAQLEDRYSAEALAARQG,-0.961
14,HMDPFAYEVKVTDLAAGSSEIRTVYTEQGSFNIPSGMSGNLKIQVRSASMYDEVEPSDWYTIGEEDIN,-0.0779
15,HMSGSFDVTLDYLNSLRNLYPAIDVEQEFRKMYAWLDSNPKNRKTERGIKRFITGWLGRAQDKAP,-1.12
16,HMDDNMNEQWKMILNSIAKKGSVTRQETEKILGIGQTRAHVLLKAMIHAGMIKAVGDGKKRRYVR,-1.01
17,HMTQGRVTGDGVNVRSQPNTDSAILTRVSTGKVVELISLKDNWYNVVVNGTKGYIRADYVSPYDG,-0.0101
18,HMAHKYYSIMRPVSIGTFPDNGTILGIVNFDTRQMVESIGKMAWGYINYGKPLTEKQISDYELVAE,-0.451
19,HMLVVEPSAELKTIIDKTASFVARNGPEFEARIKNEQNNAKFSFLQPNDPFNPYYRAKIVELGGTV,0.0591
20,HMVSVPDIGEKLPDFTGTPKRLLTPLLNKNDVNIIIKGDGWVVSQKPPAGTPVTKGMTIEFTL,-0.208
21,HMTKEEFLDEIKKELGFMPYEEVIKAEKYFESYFNGSEADEKVIERFGSPKYAAQNYYRTHVAN,-0.0965
22,HMKRTKLEEATEWLRDRLSDGVKYNGEELLREGESADMARRTLRRAAQELGVIIERERGARGRWFWSLP,-0.515
23,HMTAMDTQQKKLIIMYHDIHRLRNVEHFTIQRIADHLLLNFRTVKKFLEMTQEEFDKFSENRW,-3.01
24,HMKKLTGVQKAAILMIALGPDISSSIIKRLPENMVERITYEIANMTKITAQQRNDILKEFMDMTVAQ,-1.02
25,HMSLMLYVEDVDTAFKKAIELGATEIRPVHDQFYGDRAGTLQDPFGHIWIIGTHKEDVSDEELNNRIGNI,-0.0131
